Experimental findings from patent US20200087364A1 (IMMATICS BIOTECHNOLOGIES, published 2020) are described below.

Some results are limits rather than exact numbers.

This test addresses T1, HLA-A*01:01 (human).
T1 construct: MHC class I monomer first loaded with a UV-sensitive peptide (not identified) that is cleaved by UV irradiation and exchanged for the tested peptide; captured on streptavidin plates, detected with anti-β2m; also called peptide-receptive MHC molecules
Description: UV-ligand exchange, anti-b2m ELISA. Put shortly:
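Peptide–MHC complexes made by UV-ligand exchange of a UV-cleavable peptide; exchange yield measured by ELISA on streptavidin-coated plates, samples diluted 100-fold, 1 h 37 °C. Detection with 2 ug/ml HRP anti-β2m, TMB, A450; refolded HLA-A*02:01/MLA-001 monomer standards 15-500 ng/ml.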
Background: ELISA stands for enzyme-linked immunosorbent assay.
For the molecule YPVVVAESMY, the peptide exchange yield lay in the range of 20 to 50%.

Consider LTDPQVSYV, for which the peptide exchange yield fell in the range of 50 to 75%.

Molecule FTAEEGQLY had a peptide exchange yield of 50 to 75%. In the case of SGALDEAAAY it was 20 to 50%; in that of AVMEAAFVY, 50 to 75%; in that of MADRGEARL, 20 to 50%. In the case of SWSAGENDSYS it was 10 to 20%; in that of RLNGSVASY, 20 to 50%. The molecule DTGYLQLYY yielded a peptide exchange yield above 75%.

YMSPDIALLY: the peptide exchange yield was above 75%. Turning to WSDSTSQTIY, the peptide exchange yield was above 75%. The figure for MTSTEQSLY is 50 to 75%; for RLSTIRHLY it is 50 to 75%; for FHADSDDESF it is 10 to 20%. In the case of NKEINYFMY, the peptide exchange yield lay within 50 to 75%. ITVDVRDEF had a peptide exchange yield of 10 to 20%. For the molecule MSPDIALLYL, the peptide exchange yield fell in the range of 50 to 75%.

Consider LTDRDVSFY, for which the peptide exchange yield was above 75%. The figure for HLLSVSLYY is 10 to 20%; for VLDPMLDFY it is above 75%; for LTDTGYLQLY it is above 75%.

In the case of SRSDFEWVY, the peptide exchange yield fell in the range of 20 to 50%. In the case of RFDDINQEF it was 10 to 20%; in that of FVDTKVPEH, 20 to 50%.

In the case of EIIRYIFAY, the peptide exchange yield was 20 to 50%. NSENHILKY came in with a peptide exchange yield above 75%. The figure for ESAATGQLDY is 50 to 75%.
